Measurements: US6995018

Target: human complement Factor H (human) (UniProt P08603)
Assay: steady state fluorescence, titration of purified human Factor H with rOPN

Sequence of human complement Factor H (human) (P08603 19-1231 limits assumed): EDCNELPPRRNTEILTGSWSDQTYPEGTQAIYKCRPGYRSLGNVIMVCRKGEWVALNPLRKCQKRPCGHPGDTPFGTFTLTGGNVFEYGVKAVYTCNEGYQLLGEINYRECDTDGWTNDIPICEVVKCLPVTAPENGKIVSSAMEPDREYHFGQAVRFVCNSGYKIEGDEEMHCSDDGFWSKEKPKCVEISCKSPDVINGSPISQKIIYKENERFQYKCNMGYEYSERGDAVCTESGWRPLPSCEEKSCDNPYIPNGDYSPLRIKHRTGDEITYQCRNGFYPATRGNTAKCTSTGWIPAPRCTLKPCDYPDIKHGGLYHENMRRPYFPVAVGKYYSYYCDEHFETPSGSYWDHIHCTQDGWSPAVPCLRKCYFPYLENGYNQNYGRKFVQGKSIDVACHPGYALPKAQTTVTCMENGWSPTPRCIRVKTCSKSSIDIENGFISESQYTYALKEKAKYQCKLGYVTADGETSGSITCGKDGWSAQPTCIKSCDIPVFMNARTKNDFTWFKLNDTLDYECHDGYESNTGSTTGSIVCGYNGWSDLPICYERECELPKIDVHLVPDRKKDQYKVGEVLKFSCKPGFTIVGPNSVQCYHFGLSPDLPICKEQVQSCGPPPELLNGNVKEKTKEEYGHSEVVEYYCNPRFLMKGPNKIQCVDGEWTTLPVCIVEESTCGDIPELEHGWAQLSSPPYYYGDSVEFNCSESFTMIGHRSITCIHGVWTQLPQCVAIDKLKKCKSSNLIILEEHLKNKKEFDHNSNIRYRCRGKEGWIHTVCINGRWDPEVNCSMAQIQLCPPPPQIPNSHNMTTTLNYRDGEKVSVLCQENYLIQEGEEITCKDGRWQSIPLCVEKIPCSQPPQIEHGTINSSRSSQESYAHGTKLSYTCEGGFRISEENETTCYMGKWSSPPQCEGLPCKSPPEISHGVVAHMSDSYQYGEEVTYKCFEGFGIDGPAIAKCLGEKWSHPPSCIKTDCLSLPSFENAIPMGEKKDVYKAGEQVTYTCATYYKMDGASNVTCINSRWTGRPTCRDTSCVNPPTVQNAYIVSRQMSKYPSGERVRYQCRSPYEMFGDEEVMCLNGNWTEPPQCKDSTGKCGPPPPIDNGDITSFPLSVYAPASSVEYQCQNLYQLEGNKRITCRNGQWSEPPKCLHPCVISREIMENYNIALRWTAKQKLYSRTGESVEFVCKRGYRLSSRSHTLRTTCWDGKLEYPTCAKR

Substance: recombinant osteopontin (rOPN) (from UniProt P10451 17-300) (ligand)
- stoichiometry (OPN:Factor H): 1 mol/mol
